According to patent CN113372440A:

How the values were obtained:
[1] = target: gLgH蛋白 (recombinant single-chain EBV M81 gL ectodomain - linker - gH ectodomain - 6xHis) (Epstein-Barr virus (M81 strain, KF373730.1)); assay: ELISA, gLgH coated at 2 μg/mL, antibody titrated from 1 μg/mL (Fig. 2)
[2] = target: gH/gL glycoprotein on EBV virions produced by AKATA cells (Epstein-Barr virus) (UniProt P03231); assay: cell-based or functional assay

AMMO1 (针对EB病毒gLgH糖蛋白的人源中和单抗) (antibody) showed an EC50 [1] of 0.0255 µg/mL and an IC50 in the epithelial cell infection model (HNE1 cells, GFP-EBV, inhibition of GFP-positive cells) [2] of 0.0828 µg/mL.
